Assay [1] has as its target ATP-binding cassette G1 (human (endogenous in THP-1)) (UniProt P45844).
The target in assay [2] is ATP-binding cassette A1 (human (endogenous in THP-1)) (UniProt O95477).
UniProt O95477, sequence (O95477 whole entry): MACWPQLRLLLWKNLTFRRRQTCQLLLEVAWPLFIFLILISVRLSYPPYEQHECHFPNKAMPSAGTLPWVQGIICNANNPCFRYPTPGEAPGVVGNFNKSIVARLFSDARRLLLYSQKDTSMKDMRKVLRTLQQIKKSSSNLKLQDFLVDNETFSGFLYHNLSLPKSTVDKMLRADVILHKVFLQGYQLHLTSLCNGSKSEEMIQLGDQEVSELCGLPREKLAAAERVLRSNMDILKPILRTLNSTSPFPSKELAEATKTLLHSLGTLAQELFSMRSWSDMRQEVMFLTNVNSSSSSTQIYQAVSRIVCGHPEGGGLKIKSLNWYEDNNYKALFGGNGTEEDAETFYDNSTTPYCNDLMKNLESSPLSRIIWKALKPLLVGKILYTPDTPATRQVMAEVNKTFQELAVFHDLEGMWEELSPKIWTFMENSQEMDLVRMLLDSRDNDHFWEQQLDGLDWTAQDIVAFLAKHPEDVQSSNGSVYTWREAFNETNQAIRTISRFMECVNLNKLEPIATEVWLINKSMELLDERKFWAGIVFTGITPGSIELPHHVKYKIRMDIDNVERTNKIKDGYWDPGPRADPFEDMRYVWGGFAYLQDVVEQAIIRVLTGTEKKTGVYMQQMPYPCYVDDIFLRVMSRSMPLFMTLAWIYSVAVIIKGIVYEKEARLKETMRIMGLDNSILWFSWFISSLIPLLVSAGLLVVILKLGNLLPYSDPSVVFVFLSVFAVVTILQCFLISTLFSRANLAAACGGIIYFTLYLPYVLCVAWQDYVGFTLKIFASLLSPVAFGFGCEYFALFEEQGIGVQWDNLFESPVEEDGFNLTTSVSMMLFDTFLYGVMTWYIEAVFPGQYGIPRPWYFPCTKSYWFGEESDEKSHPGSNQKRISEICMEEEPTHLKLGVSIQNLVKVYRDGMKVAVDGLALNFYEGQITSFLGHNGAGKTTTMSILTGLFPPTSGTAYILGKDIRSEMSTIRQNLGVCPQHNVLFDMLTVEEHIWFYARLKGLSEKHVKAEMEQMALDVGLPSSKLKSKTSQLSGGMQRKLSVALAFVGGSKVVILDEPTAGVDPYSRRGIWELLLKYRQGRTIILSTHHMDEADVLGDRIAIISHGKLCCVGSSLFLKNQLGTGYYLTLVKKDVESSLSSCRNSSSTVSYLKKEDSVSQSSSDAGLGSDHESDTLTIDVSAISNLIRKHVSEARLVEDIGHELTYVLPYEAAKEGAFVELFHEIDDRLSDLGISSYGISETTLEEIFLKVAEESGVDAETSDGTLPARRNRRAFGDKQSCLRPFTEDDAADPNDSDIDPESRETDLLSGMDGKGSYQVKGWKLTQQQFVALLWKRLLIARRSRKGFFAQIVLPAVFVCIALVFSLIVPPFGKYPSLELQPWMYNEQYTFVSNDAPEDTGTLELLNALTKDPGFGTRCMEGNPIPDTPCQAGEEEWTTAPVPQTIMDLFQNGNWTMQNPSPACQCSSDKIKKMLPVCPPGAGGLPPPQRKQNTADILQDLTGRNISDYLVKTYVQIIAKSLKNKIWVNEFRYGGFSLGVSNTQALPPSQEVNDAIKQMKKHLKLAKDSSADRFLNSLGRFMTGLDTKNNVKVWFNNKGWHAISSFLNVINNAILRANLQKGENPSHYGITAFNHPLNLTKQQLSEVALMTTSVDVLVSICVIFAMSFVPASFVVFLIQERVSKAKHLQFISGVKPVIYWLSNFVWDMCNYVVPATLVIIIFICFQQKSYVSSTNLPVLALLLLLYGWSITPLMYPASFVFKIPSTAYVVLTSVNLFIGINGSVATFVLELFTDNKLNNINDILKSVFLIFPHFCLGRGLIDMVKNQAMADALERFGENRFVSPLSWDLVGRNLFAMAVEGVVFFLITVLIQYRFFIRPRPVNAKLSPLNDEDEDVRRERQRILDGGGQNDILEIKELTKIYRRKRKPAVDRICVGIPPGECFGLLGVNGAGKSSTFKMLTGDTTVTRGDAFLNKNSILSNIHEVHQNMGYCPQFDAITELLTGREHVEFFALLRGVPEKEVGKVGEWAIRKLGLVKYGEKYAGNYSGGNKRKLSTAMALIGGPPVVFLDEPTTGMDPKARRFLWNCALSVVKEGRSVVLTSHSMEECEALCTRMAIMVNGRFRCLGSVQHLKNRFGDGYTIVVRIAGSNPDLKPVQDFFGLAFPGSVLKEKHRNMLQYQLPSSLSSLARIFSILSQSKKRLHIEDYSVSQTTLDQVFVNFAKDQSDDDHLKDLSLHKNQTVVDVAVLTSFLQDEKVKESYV

On to “human apoA-1 from human plasma (from UniProt P02647 19-267) (ligand)”, for which the cholesterol efflux from [H^3]-cholesterol-loaded THP-1 macrophages to apoA-I (10 μg/ml) after heat-killed L. acidophilus K301; no effect in the absence of apoA-I in assay [1] and in assay [2] was 2.3 fold each time.

For the origin of these results see paper PMC4847857.
